B1: 64 (protein)
chain: MADLYENPMGLMGFEFIEFASPTPGTLEPIFEIMGFTKVATHRSKNVHLYRQGEINLILNNEPNSIASYFAAEHGPSVCGMAFRVKDSQKAYNRALELGAQPIHIDTGPMELNLPAIKGIGGAPLYLIDRFGEGSSIYDIDFVYLEGVERNPVGAGLKVIDHLTHNVYRGRMVYWANFYEKLFNFREARYFDIKGEYTGLTSKAMSAPDGMIRIPLNEESSKGAGQIEEFLMQFNGEGIQHVAFLTDDLVKTWDALKKIGMRFMTAPADSYYEMLEGRLPDHGEPVDQLQARGILLDGSSVEGDKRLLLQIFSETLMGPVFFEFIQRKGDDGFGPHSFKVLFEQMERDQVRRGVLTAD
modifications: mutant HPPD polypeptide
B2: 65 (protein)
chain: MADLYENPMGLMGFEFIEFASPTPGTLEPIFEIMGFTKVATHRSKNVHLYRQGEINLILNNEPNSIASYFAAEHGPSVCGMAFRVKDSQKAYNRALELGAQPIHIDTGPMELNLPAIKGIGGAPLYLIDRFGEGSSIYDIDFVYLEGVERNPVGAGLKVIDHLTHNVYRGRMVYWANFYEKLFNFREARYFDIKGEYTGLTSKAMSAPDGMIRIPLNEESSKGAGQIEEFLMQFNGEGIQHVAFLTDDLVKTWDALKKIGMRFMTAPADSYYEMLEGRLPDHGEPVDQLQARGILLDGSSVEGDKRLLLQIFSERLMGPVFFEFIQRKGDDGFGPHSFKVLFESMERDQVRRGVLTAD
modifications: mutant HPPD polypeptide
B3: 2 (protein)
chain: MADLYENPMGLMGFEFIEFASPTPGTLEPIFEIMGFTKVATHRSKNVHLYRQGEINLILNNEPNSIASYFAAEHGPSVCGMAFRVKDSQKAYNRALELGAQPIHIDTGPMELNLPAIKGIGGAPLYLIDRFGEGSSIYDIDFVYLEGVERNPVGAGLKVIDHLTHNVYRGRMVYWANFYEKLFNFREARYFDIKGEYTGLTSKAMSAPDGMIRIPLNEESSKGAGQIEEFLMQFNGEGIQHVAFLTDDLVKTWDALKKIGMRFMTAPPDTYYEMLEGRLPDHGEPVDQLQARGILLDGSSVEGDKRLLLQIFSETLMGPVFFEFIQRKGDDGFGPWNFAQLFESIERDQVRRGVLTAD
modifications: mutant HPPD polypeptide
B4: 66 (protein)
chain: MADLYENPMGLMGFEFIEFASPTPGTLEPIFEIMGFTKVATHRSKNVHLYRQGEINLILNNEPNSIASYFAAEHGPSVCGMAFRVKDSQKAYNRALELGAQPIHIDTGPMELNLPAIKGIGGAPLYLIDRFGEGSSIYDIDFVYLEGVERNPVGAGLKVIDHLTHNVYRGRMVYWANFYEKLFNFREARYFDIKGEYTGLTSKAMSAPDGMIKIPLNEESSKGAGQIEEFLMQFNGEGIQHVAFLTDDLVKTWDALKKIGMRFMTAPADSYYEMLEGRLPDHGEPVDQLQARGILLDGSSVEGDKRLLLQIFSETLMGPVFFEFIQRKGDDGFGPHSFKVLFEQMERDQVRRGVLTAD
modifications: mutant HPPD polypeptide
B5: 67 (protein)
chain: MADLYENPMGLMGFEFIEFASPTPGTLEPIFEIMGFTKVATHRSKNVHLYRQGEINLILNNEPNSIASYFAAEHGPSVCGMAFRVKDSQKAYNRALELGAQPIHIDTGPMELNLPAIKGIGGAPLYLIDRFGEGSSIYDIDFVYLEGVERNPVGAGLKVIDHLTHNVYRGRMVYWANFYEKLFNFREARYFDIKGEYTGLTSKAMSAPDGMIKIPLNEESSKGAGQIEEFLMQFNGEGIQHVAFLTDDLVKTWDALKKIGMRFMTAPADSYYEMLEGRLPDHGEPVDQLQARGILLDGSSVEGDKRLLLQIFSERLMGPVFFEFIQRKGDDGFGPHSFKVLFEQMERDQVRRGVLTAD
modifications: mutant HPPD polypeptide
B6: 68 (protein)
chain: MADLYENPMGLMGFEFIEFASPTPGTLEPIFEIMGFTKVATHRSKNVHLYRQGEINLILNNEPNSIASYFAAEHGPSVCGMAFRVKDSQKAYNRALELGAQPIHIDTGPMELNLPAIKGIGGAPLYLIDRFGEGSSIYDIDFVYLEGVERNPVGAGLKVIDHLTHNVYRGRMVYWANFYEKLFNFREARYFDIKGEYTGLTSKAMSAPDGMIRIPLNEESSKGAGQIEEFLMQFNGEGIQHVAFLTDDLVKTWDALKKIGMRFMTAPADSYYEMLEGRLPDHGEPVDQLQARGILLDGSSVEGDKRLLLQIFSEQLMGPVFFEFIQRKGDDGFGPHSFKVLFEQMERDQVRRGVLTAD
modifications: mutant HPPD polypeptide
B7: 69 (protein)
chain: MADLYENPMGLMGFEFIEFASPTPGTLEPIFEIMGFTKVATHRSKNVHLYRQGEINLILNNEPNSIASYFAAEHGPSVCGMAFRVKDSQKAYNRALELGAQPIHIDTGPMELNLPAIKGIGGAPLYLIDRFGEGSSIYDIDFVYLEGVERNPVGAGLKVIDHLTHNVYRGRMVYWANFYEKLFNFREARYFDIKGEYTGLTSKAMSAPDGMIRIPLNEESSKGAGQIEEFLMQFNGEGIQHVAFLTDDLVKTWDALKKIGMRFMTAPADSYYEMLEGRLPDHGEPVDQLQARGILLDGSSVEGDKRLLLQIFSERLMGPVFFEFIQRKGDDGFGPHSFKVLFEQMERDQVRRGVLTAD
modifications: mutant HPPD polypeptide
B8: 70 (protein)
chain: MADLYENPMGLMGFEFIEFASPTPGTLEPIFEIMGFTKVATHRSKNVHLYRQGEINLILNNEPNSIASYFAAEHGPSVCGMAFRVKDSQKAYNRALELGAQPIHIDTGPMELNLPAIKGIGGAPLYLIDRFGEGSSIYDIDFVYLEGVERNPVGAGLKVIDHLTHNVYRGRMVYWANFYEKLFNFREARYFDIKGEYTGLTSKAMSAPDGMIKIPLNEESSKGAGQIEEFLMQFNGEGIQHVAFLTDDLVKTWDALKKIGMRFMTAPADSYYEMLEGRLPDHGEPVDQLQARGILLDGSSVEGDKRLLLQIFSEQLMGPVFFEFIQRKGDDGFGPHSFKVLFEQMERDQVRRGVLTAD
modifications: mutant HPPD polypeptide
B9: 71 (protein)
chain: MADLYENPMGLMGFEFIEFASPTPGTLEPIFEIMGFTKVATHRSKNVHLYRQGEINLILNNEPNSIASYFAAEHGPSVCGMAFRVKDSQKAYNRALELGAQPIHIDTGPMELNLPAIKGIGGAPLYLIDRFGEGSSIYDIDFVYLEGVERNPVGAGLKVIDHLTHNVYRGRMVYWANFYEKLFNFREARYFDIKGEYTGLTSKAMSAPDGMIRILLNEESSKGAGQIEEFLMQFNGEGIQHVAFLTDDLVKTWDALKKIGMRFMTAPPDTYYEMLEGRLPDHGEPVDQLQARGILLDGSSVEGDKRLLLQIFSETLMGPVFFEFIQRKGDDGFGPFNFKELFESIERDQVRRGVLTAD
modifications: mutant HPPD polypeptide
B10: 3 (protein)
chain: MADLYENPMGLMGFEFIEFASPTPGTLEPIFEIMGFTKVATHRSKNVHLYRQGEINLILNNEPNSIASYFAAEHGPSVCGMAFRVKDSQKAYNRALELGAQPIHIDTGPMELNLPAIKGIGGAPLYLIDRFGEGSSIYDIDFVYLEGVERNPVGAGLKVIDHLTHNVYRGRMVYWANFYEKLFNFREARYFDIKGEYTGLTSKAMSAPDGMIRIPLNEESSKGAGQIEEFLMQFNGEGIQHVAFLTDDLVKTWDALKKIGMRFMTAPADTYYEMLEGRLPDHGEPVDQLQARGILLDGSSVEGDKRLLLQIFSETLMGPVFFEFIQRKGDDGFGPDSFKVLFESIERDQVRRGVLTAD
modifications: mutant HPPD polypeptide

System: HPPD polypeptides
Experiment: coupled HPPD activity assay: turnover and residual turnover in crude extracts
Format: biochemical, Pseudomonas fluorescens
Conditions: for Residual turnover [%]: 100 μM Cmpd. 1, signal change with inhibitor divided by signal change without inhibitor; for Turnover: absence of Cmpd. 1, kinetic changes in absorbance (OD) at 320 nm, 30 min; for Turnover / Residual turnover: high substrate concentration; for Residual turnover: presence of 100 μM Cmpd. 1, changes in absorbance (OD) at 320 nm
Experimental: The activity of HPPD polypeptides was determined in absence or presence of HPPD inhibitors using the coupled HPPD activity assay (FIG. 1).
For the determination of the residual activity, the apparent kinetic constant (kapp) of the determined substrate conversion was measured as kinetic changes in absorbance (OD) at 320 nm in a coupled assay, in that homogentisate (HGA) formed by HPPD from HPP is directly converted into the well absorbing molecule maleylacetoacetate (MAA) by a second enzyme homogentisate dioxygenase (HGD), applied in excess uniformly in all assays (see FIG. 1). The measurements were performed in 384 micro titer plates (Greiner Bio-One GmbH, Frickenhausen, Germany) by plate readers (Tecan infinite M1000 or M1000PRO, Tecan, Männedorf, Switzerland). The kcat/kM ratio of an enzymatic activity is proportional to the apparent kinetic constant kapp and is proportional to kcat/kM*[E] ([E]=enzyme concentration). […] As both kapp measurements in the presence and absence of inhibitor were performed by use of the identical enzyme sample, crude or purified, and thereby at the same enzyme concentration, the enzyme concentration eliminates from the calculation of residual activity and the ratio of both kapp directly indicates the change of kM due to the inhibition.
The assay solution used for determination of residual activities in raw HPPD polypeptide samples was composed by 200 mM sodium phosphate (Merck, Darmstadt, Germany, pH 7.0), 5 mM MgCl2 (Merck, Darmstadt, Germany), 20 mM ascorbate (Sigma-Aldrich, St. Louis, USA), 1 mM DTT (Sigma-Aldrich, St. Louis, USA), 0.1% Pluronic F-68 (Sigma-Aldrich, St. Louis, USA), 40 μM FeSO4 (Sigma-Aldrich, St. Louis, USA), about 8 mg/ml purified HGD and 500 μM HPP from a 1 M stock solution in DMSO (Sigma-Aldrich, St. Louis, USA) and equilibrated for 20 min on ice. For every HPPD polypeptide sample two assays were performed in quadruplets, whereby 5 μl of HPPD polypeptide sample were mixed firstly with 5 μl buffer (1×BugBuster®; (Merck, Darmstadt, Germany); in 140 mM Tris, pH 7.8, with 1:25000 diluted BNase®; Qiagen, Hilden, Germany)) or 5 μl inhibitor diluted in the same buffer from a 0.1 M stock solution in DMSO (200 μM resulting in 100 μM in the HPPD polypeptide/inhibitor sample) in the reference and inhibition assay, respectively, and subsequently with 10 μl assay solution. The change in absorbance at 320 nm was followed in 1 min intervals for 30 min. The kapp values were calculated as signal slope over time in the early phase of the kinetic reaction, usually for the first 5-10 minutes of the measurements. Additionally and according to the calculated residual activity, the total conversion, i.e. the absolute change in signal, in the 30 min timeframe was monitored as measure of turnover, and a residual turnover was calculated by dividing the change in signal in the presence of inhibitor by the change in signal in the reference sample without inhibitor.
Residual turnover were determined according to Example 3 by measuring total change in signal in the presence and absence of Cmpd. 1 (2-chloro-3-(methylsulfanyl)-N-(1-methyl-1H-tetrazol-5-yl)-4-(trifluoromethyl)benzamide). For each mutant HPPD polypeptide, the total change in signal without HPPD inhibitor herbicides served for normalization of the total change in signal in the presence of the herbicide.

Molecule	Residual turnover [%]	Turnover	Residual turnover
B1	47%	0.242	0.114
B2	54%	0.327	0.177
B3	–	0.060	0.026
B4	56%	0.336	0.187
B5	64%	0.335	0.215
B6	64%	0.346	0.223
B7	66%	0.36	0.237
B8	71%	0.338	0.240
B9	–	0.044	0.022
B10	64%	0.096	0.061

From patent US11180770B2, “HPPD variants and methods of use” (BASF Agricultural Solutions Seed US LLC, priority 2017, dated 2021)
